Molecular target: rat GIP receptor (rat) (UniProt P43219)
Experiment: cell-based or functional assay

Chain of UniProt P43219 (P43219 19-455): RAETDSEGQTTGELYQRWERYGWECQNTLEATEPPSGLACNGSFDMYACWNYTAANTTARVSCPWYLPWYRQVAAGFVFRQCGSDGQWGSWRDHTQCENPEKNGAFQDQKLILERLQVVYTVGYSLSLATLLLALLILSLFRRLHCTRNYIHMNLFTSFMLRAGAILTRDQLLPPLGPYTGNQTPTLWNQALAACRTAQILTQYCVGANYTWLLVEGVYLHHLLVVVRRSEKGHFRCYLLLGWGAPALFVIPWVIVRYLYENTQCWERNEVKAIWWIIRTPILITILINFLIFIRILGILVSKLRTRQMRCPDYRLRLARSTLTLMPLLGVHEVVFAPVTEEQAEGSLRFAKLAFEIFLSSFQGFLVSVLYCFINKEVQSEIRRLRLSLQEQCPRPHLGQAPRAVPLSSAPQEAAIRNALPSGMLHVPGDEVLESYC

A cell proliferation (CyQUANT DNA content) of cultured adult hippocampal progenitor cells, 1 nM GIP, 48 h (% increase relative to control) of 74.5 and a methyl-[3H]-thymidin incorporation in cultured adult hippocampal progenitor cells, 1 nM GIP, 24 h (% increase compared to control) of 32.4 were found for “synthetic porcine GIP (Sigma) (from UniProt P01281 1-42) (peptide)” in this work.

From patent US20050245441A1
